Patent US9791436

Molecular target: SH3-peptide-tagged TVMV-inducible HCV-based signal transducers
Assay: cell-based or functional assay

B1: SH3-H6-68-AP (protein)
chain: SGGSGAEYVRALFDFNGNDEEDLPFKKGDILRIRDKPEEQWWNAEDSEGKRGMIPVPYVEKYRPASASVSALIGGRGGSGGSGGSGGSGGSGGSSKALLKGVRDFNPISACVCLLENSSDGHSERLFGIGFGPYIIANQHLFRRNNGELTIKTMHGEFKVKNSTQLQMKPVEGRDIIVIKMAKDFPPFPQKLKFRQPTIKDRVCMVSTNFQQKSVSSLVSESSHIVHKEDTSFWQHWITTKDGQCGSPLVSIIDGNILGIHSLTHTTNGSNYFVEFPEKFVATYLDAADGWCKNWKFNADKISWGSFILWEDAPEDFMSGLVPRGVGREYVRFAPGSTHHHHHH
induction ratio: 20 fold
